The RNAGym collection of RNA variant scans (doi:10.1073/pnas.2313332121)

B1: TPR t1 (parent)
chain: GACCAAUCUGCCCUCAGAGCUCGAGAACAUCUUCGGAUGCAGAGGAGGCAGGCUUCGGUGGCGCGAUAGCGCCAACGUCCUCAACCUCCAAUGCAUCCCACCACAUGAUGAUGCCUGAAGAGCCUUGGUUUUUUG

Variants of: B1
Assay: polymerase ribozyme fitness, log enrichment relative to wild type (log ratio); higher = more active; in vitro selection for triplet polymerase activity
Summary of the method: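 For each subunit of a heterodimeric triplet polymerase ribozyme, a mutant library was built by PCR and transcribed, then taken through a single in vitro selection round in triplicate. Selection involved annealing to a biotinylated primer, the partner subunit and triplets, incubation frozen at −7 °C, gel excision of extended constructs, capture on streptavidin beads and RT-PCR. Genotypes were retained after Illumina sequencing of inputs and outputs only with ≥10 input reads and ≥1 read in each output. Fitness is defined as the logarithm of a genotype's enrichment relative to wild-type enrichment, using inverse-variance-weighted averages across replicates, with the logarithm taken to base 2.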

Q: For G113U C114A, which “polymerase ribozyme fitness (log ratio)” value is on record?
A: -4.29

Q: With C8G C12G U30C C53G C114U as the variant, how does the “polymerase ribozyme fitness (log ratio)” value read?
A: -4.29

Q: Which “polymerase ribozyme fitness (log ratio)” value does the source give for C3U G45A G48U G60A here?
A: -1.92

Q: For A5U C15G G71C A84U, which “polymerase ribozyme fitness (log ratio)” value is on record?
A: -4.19

Q: Which “polymerase ribozyme fitness (log ratio)” value does the source give for G57A C123U here?
A: -0.636

Q: Which “polymerase ribozyme fitness (log ratio)” value does the source give for A5C A18G here?
A: -4.19

Q: Which “polymerase ribozyme fitness (log ratio)” value does the source give for C13U C15U U54G U81A U96A here?
A: -3.41

Q: Which “polymerase ribozyme fitness (log ratio)” value does the source give for A2G A18U C28G C124A U130C here?
A: -5.83

Q: Which “polymerase ribozyme fitness (log ratio)” value does the source give for A43U G60C C82G here?
A: -4.23

Q: For C8A C49A G61A, which “polymerase ribozyme fitness (log ratio)” value is on record?
A: 0.627

Q: Which “polymerase ribozyme fitness (log ratio)” value does the source give for A16G A29G G44A U87G A121C here?
A: -2.16

Q: For C11G G23U G39C G45C G47C C89U C99G C115U, which “polymerase ribozyme fitness (log ratio)” value is on record?
A: -7.14

Q: With C49U C124U as the variant, how does the “polymerase ribozyme fitness (log ratio)” value read?
A: 1.03

Q: Which “polymerase ribozyme fitness (log ratio)” value does the source give for G10C C13A C40A G42U G52U C72A here?
A: -5.16

Q: With A43G G44U A46U as the variant, how does the “polymerase ribozyme fitness (log ratio)” value read?
A: -2.25

Q: With G58A C123G as the variant, how does the “polymerase ribozyme fitness (log ratio)” value read?
A: 2.11

Q: Which “polymerase ribozyme fitness (log ratio)” value does the source give for C3U U14A here?
A: -2.47

Q: With A5U C80G as the variant, how does the “polymerase ribozyme fitness (log ratio)” value read?
A: -5.2

Q: Which “polymerase ribozyme fitness (log ratio)” value does the source give for G61A C72U G77U here?
A: -0.134

Q: For C97U G110A, which “polymerase ribozyme fitness (log ratio)” value is on record?
A: -1.67

Q: With C72U U116A G120U as the variant, how does the “polymerase ribozyme fitness (log ratio)” value read?
A: -1.54

Q: With A6U A26G C79U as the variant, how does the “polymerase ribozyme fitness (log ratio)” value read?
A: -2.88

Q: Which “polymerase ribozyme fitness (log ratio)” value does the source give for C15A A16C C72A here?
A: -2.92

Q: For G42C C73G C79U A95G U129C, which “polymerase ribozyme fitness (log ratio)” value is on record?
A: -3.37

Q: With A2C C20G G60A U112C as the variant, how does the “polymerase ribozyme fitness (log ratio)” value read?
A: -4.64

Q: With U9A A16G G93A G117A as the variant, how does the “polymerase ribozyme fitness (log ratio)” value read?
A: -0.214

Q: Which “polymerase ribozyme fitness (log ratio)” value does the source give for C20U G71A here?
A: -1.94

Q: For A6C C15G U55G C94G C124G G127A, which “polymerase ribozyme fitness (log ratio)” value is on record?
A: -3.17

Q: With U59C A66G as the variant, how does the “polymerase ribozyme fitness (log ratio)” value read?
A: -1.47

Q: With G17C A50C U81A C114U G120U as the variant, how does the “polymerase ribozyme fitness (log ratio)” value read?
A: -5.67

Q: Which “polymerase ribozyme fitness (log ratio)” value does the source give for C12A G48U here?
A: -2.61

Q: For C13A C85U A100C, which “polymerase ribozyme fitness (log ratio)” value is on record?
A: -3.76

Q: Which “polymerase ribozyme fitness (log ratio)” value does the source give for C15G U112C here?
A: -1.42

Q: Which “polymerase ribozyme fitness (log ratio)” value does the source give for A41U A83C G110A here?
A: -4

Q: For G71U A84C, which “polymerase ribozyme fitness (log ratio)” value is on record?
A: -0.343

Q: Which “polymerase ribozyme fitness (log ratio)” value does the source give for G42C G71U U96G here?
A: -3.01

Q: For C70G C94A, which “polymerase ribozyme fitness (log ratio)” value is on record?
A: -3.62

Q: Which “polymerase ribozyme fitness (log ratio)” value does the source give for C12A A84U A95C G135C here?
A: -1.09

Q: Which “polymerase ribozyme fitness (log ratio)” value does the source give for G47U C104A U129A here?
A: -5.96

Q: With C53U C64U as the variant, how does the “polymerase ribozyme fitness (log ratio)” value read?
A: -0.276

Q: For C15G G107A, which “polymerase ribozyme fitness (log ratio)” value is on record?
A: -5.32

Q: With C15U G61A C82U C85A C86G as the variant, how does the “polymerase ribozyme fitness (log ratio)” value read?
A: -2.18

Q: Which “polymerase ribozyme fitness (log ratio)” value does the source give for G110A G128U here?
A: -3.47

Q: For C3U C15U G39C, which “polymerase ribozyme fitness (log ratio)” value is on record?
A: -2.34

Q: Which “polymerase ribozyme fitness (log ratio)” value does the source give for U112C U132A here?
A: 1.65

Q: For C62U U125A, which “polymerase ribozyme fitness (log ratio)” value is on record?
A: -1.11

Q: With C11U C22A as the variant, how does the “polymerase ribozyme fitness (log ratio)” value read?
A: -4.84

Q: For C15A G51A A74U C79G A111C A118U, which “polymerase ribozyme fitness (log ratio)” value is on record?
A: -6.36

Q: Which “polymerase ribozyme fitness (log ratio)” value does the source give for C12U U14A C64U G110U G113A U130C here?
A: -4.16

Q: For C34A C40U C49A C62U U96G, which “polymerase ribozyme fitness (log ratio)” value is on record?
A: -5.57

Q: For G39A C40A G45U, which “polymerase ribozyme fitness (log ratio)” value is on record?
A: -4.88

Q: With G42A C70A C89A C124U as the variant, how does the “polymerase ribozyme fitness (log ratio)” value read?
A: -4

Q: Which “polymerase ribozyme fitness (log ratio)” value does the source give for G10U C40A C64U U81C here?
A: -2.46

Q: With C34U G110U as the variant, how does the “polymerase ribozyme fitness (log ratio)” value read?
A: -4.07

Q: For C11U A84G C89A, which “polymerase ribozyme fitness (log ratio)” value is on record?
A: -4

Q: With U33C C99U C123A as the variant, how does the “polymerase ribozyme fitness (log ratio)” value read?
A: -7.51

Q: Which “polymerase ribozyme fitness (log ratio)” value does the source give for C11A U132A here?
A: -2.12

Q: Which “polymerase ribozyme fitness (log ratio)” value does the source give for C49G G120U C124A G135U here?
A: -1.63

Q: With G48U G71C as the variant, how does the “polymerase ribozyme fitness (log ratio)” value read?
A: -1.77

Q: With C13G A83U as the variant, how does the “polymerase ribozyme fitness (log ratio)” value read?
A: -2.24

Q: With C3U C62U A74U C89G as the variant, how does the “polymerase ribozyme fitness (log ratio)” value read?
A: -2.26

Q: Which “polymerase ribozyme fitness (log ratio)” value does the source give for G61A G127C here?
A: -0.956

Q: With U32G C34G C64U C85A G110U as the variant, how does the “polymerase ribozyme fitness (log ratio)” value read?
A: -6.37

Q: For G10C C12A G51A G127C, which “polymerase ribozyme fitness (log ratio)” value is on record?
A: -4.99

Q: Which “polymerase ribozyme fitness (log ratio)” value does the source give for C56A C104U U106A U109A here?
A: -5.35

Q: Which “polymerase ribozyme fitness (log ratio)” value does the source give for C20G C53G C72U here?
A: -3.94

Q: With C89A G117A as the variant, how does the “polymerase ribozyme fitness (log ratio)” value read?
A: -1.73

Q: With C72U A74U U81C as the variant, how does the “polymerase ribozyme fitness (log ratio)” value read?
A: -0.388

Q: Which “polymerase ribozyme fitness (log ratio)” value does the source give for G25A C70A here?
A: -6.74

Q: Which “polymerase ribozyme fitness (log ratio)” value does the source give for C31U G39A G69U G120U here?
A: -3.44

Q: For C15U A41G, which “polymerase ribozyme fitness (log ratio)” value is on record?
A: -1.83

Q: For G36C G52C C70A U106A, which “polymerase ribozyme fitness (log ratio)” value is on record?
A: -2.71

Q: Which “polymerase ribozyme fitness (log ratio)” value does the source give for G61A A84U C114U here?
A: -2.12

Q: Which “polymerase ribozyme fitness (log ratio)” value does the source give for G120A G127C here?
A: -0.483

Q: Which “polymerase ribozyme fitness (log ratio)” value does the source give for G48A C85U A105U here?
A: -2.08

Q: For A26G G45C G48U C88U, which “polymerase ribozyme fitness (log ratio)” value is on record?
A: -5.02

Q: For C86G G93A G113C, which “polymerase ribozyme fitness (log ratio)” value is on record?
A: -4.01

Q: Which “polymerase ribozyme fitness (log ratio)” value does the source give for G44U A95C here?
A: -2.44

Q: With G44A G61C as the variant, how does the “polymerase ribozyme fitness (log ratio)” value read?
A: -3.11

Q: Which “polymerase ribozyme fitness (log ratio)” value does the source give for C56G U132C here?
A: -0.811

Q: Which “polymerase ribozyme fitness (log ratio)” value does the source give for U14G A43U G63C G71U C88G here?
A: -7.34

Q: Which “polymerase ribozyme fitness (log ratio)” value does the source give for U9A C12A G42U A46G C53G C70U U132A here?
A: -2.02

Q: For G47C C49A C70A U106G, which “polymerase ribozyme fitness (log ratio)” value is on record?
A: -5.44

Q: With A16U A37U G69U U106C G120U as the variant, how does the “polymerase ribozyme fitness (log ratio)” value read?
A: -0.0765
